Experimental data: publication PMC7542365 (mBio, 2020)

Biological target: A/Anhui/1/2013 H7N9 NA, thrombin-digested (for crystals) (influenza A virus A/Anhui/1/2013 (H7N9))
Assay: crystal structure

Q: “A/Anhui/1/2013 H7N9 NA, thrombin-digested (for crystals) (domain or fragment)” was tested. Which stoichiometry N did it give?
A: Its stoichiometry N is 4.
